Assay results: patent US20210139548A1 (published 2021)
*1 amine or outer side, *2 acyl side, *3 side chain or, on linkers, in order; H or OH if unused. Side-chain parts run from the residue outwards. The star is where a group is joined. C18 diacid = O=C(O)CCCCCCCCCCCCCCCCC(=O)*; γGlu = O=C(O)[C@H](CCC(=O)[*:2])N[*:1]; Isovaleryl = CC(C)CC(=O)*; AEEA = NCCOCCOCC(=O)O

T1: human neuropeptide Y2 receptor (human, UniProt P49146 1-381)
T1 construct: whole, on cells; also called hNPY2 receptor; hNPY2-R
T1 sequence (looked up): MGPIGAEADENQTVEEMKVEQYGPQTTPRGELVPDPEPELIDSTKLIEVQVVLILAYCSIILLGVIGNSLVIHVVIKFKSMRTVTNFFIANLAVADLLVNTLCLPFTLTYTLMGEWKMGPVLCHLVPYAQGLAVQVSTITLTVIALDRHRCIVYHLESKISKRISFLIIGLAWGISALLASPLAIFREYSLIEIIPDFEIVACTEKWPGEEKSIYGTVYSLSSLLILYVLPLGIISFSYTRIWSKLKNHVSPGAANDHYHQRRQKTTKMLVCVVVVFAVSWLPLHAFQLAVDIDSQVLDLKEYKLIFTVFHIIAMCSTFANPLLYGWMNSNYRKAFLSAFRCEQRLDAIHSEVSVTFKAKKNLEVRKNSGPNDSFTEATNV


Target: T1, human neuropeptide Y2 receptor
Assay: radioligand competition (125I-PYY(1-36)), hNPY2R membranes
Outline: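 Commercial human Y2 receptor membranes (0.5 μg protein/well) were incubated with peptide for 2 h at room temperature in 50 mM HEPES, 5 mM MgCl₂, 1 mM CaCl₂, pH 7.4, with 0.2% ovalbumin. Bound radioligand was separated on PEI-soaked GF/C filters and counted by scintillation, and IC₅₀ came from nonlinear sigmoidal regression.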

| Binder | Ki [nM] |
| --- | --- |
| Isovaleryl-APEK([AEEA-AEEA-γGlu-C18 diacid])PEADASPEELQRYEVSLRHYYNWLTRQRY-NH2 (SMILES CC(C)CC(=O)N[C@@H](C)C(=O)N1CCC[C@H]1C(=O)N[C@@H](CCC(=O)O)C(=O)N[C@@H](CCCCNC(=O)COCCOCCNC(=O)COCCOCCNC(=O)CC[C@H](NC(=O)CCCCCCCCCCCCCCCCC(=O)O)C(=O)O)C(=O)N1CCC[C@H]1C(=O)N[C@@H](CCC(=O)O)C(=O)N[C@@H](C)C(=O)N[C@@H](CC(=O)O)C(=O)N[C@@H](C)C(=O)N[C@@H](CO)C(=O)N1CCC[C@H]1C(=O)N[C@@H](CCC(=O)O)C(=O)N[C@@H](CCC(=O)O)C(=O)N[C@@H](CC(C)C)C(=O)N[C@@H](CCC(N)=O)C(=O)N[C@@H](CCCNC(=N)N)C(=O)N[C@@H](Cc1ccc(O)cc1)C(=O)N[C@@H](CCC(=O)O)C(=O)N[C@H](C(=O)N[C@@H](CO)C(=O)N[C@@H](CC(C)C)C(=O)N[C@@H](CCCNC(=N)N)C(=O)N[C@@H](Cc1c[nH]cn1)C(=O)N[C@@H](Cc1ccc(O)cc1)C(=O)N[C@@H](Cc1ccc(O)cc1)C(=O)N[C@@H](CC(N)=O)C(=O)N[C@@H](Cc1c[nH]c2ccccc12)C(=O)N[C@@H](CC(C)C)C(=O)N[C@H](C(=O)N[C@@H](CCCNC(=N)N)C(=O)N[C@@H](CCC(N)=O)C(=O)N[C@@H](CCCNC(=N)N)C(=O)N[C@@H](Cc1ccc(O)cc1)C(N)=O)[C@@H](C)O)C(C)C) [Compound 86] | 1.19 |
| Isovaleryl-APEK([AEEA-AEEA-γGlu-C18 diacid])PEEDSSPAELQRYYVSLRHYYNWLTRQRY-NH2 (SMILES CC(C)CC(=O)N[C@@H](C)C(=O)N1CCC[C@H]1C(=O)N[C@@H](CCC(=O)O)C(=O)N[C@@H](CCCCNC(=O)COCCOCCNC(=O)COCCOCCNC(=O)CC[C@H](NC(=O)CCCCCCCCCCCCCCCCC(=O)O)C(=O)O)C(=O)N1CCC[C@H]1C(=O)N[C@@H](CCC(=O)O)C(=O)N[C@@H](CCC(=O)O)C(=O)N[C@@H](CC(=O)O)C(=O)N[C@@H](CO)C(=O)N[C@@H](CO)C(=O)N1CCC[C@H]1C(=O)N[C@@H](C)C(=O)N[C@@H](CCC(=O)O)C(=O)N[C@@H](CC(C)C)C(=O)N[C@@H](CCC(N)=O)C(=O)N[C@@H](CCCNC(=N)N)C(=O)N[C@@H](Cc1ccc(O)cc1)C(=O)N[C@@H](Cc1ccc(O)cc1)C(=O)N[C@H](C(=O)N[C@@H](CO)C(=O)N[C@@H](CC(C)C)C(=O)N[C@@H](CCCNC(=N)N)C(=O)N[C@@H](Cc1c[nH]cn1)C(=O)N[C@@H](Cc1ccc(O)cc1)C(=O)N[C@@H](Cc1ccc(O)cc1)C(=O)N[C@@H](CC(N)=O)C(=O)N[C@@H](Cc1c[nH]c2ccccc12)C(=O)N[C@@H](CC(C)C)C(=O)N[C@H](C(=O)N[C@@H](CCCNC(=N)N)C(=O)N[C@@H](CCC(N)=O)C(=O)N[C@@H](CCCNC(=N)N)C(=O)N[C@@H](Cc1ccc(O)cc1)C(N)=O)[C@@H](C)O)C(C)C) [Compound 87] | 1.97 |
